Reference: patent US20130079278A1 (Novo Nordisk, published 2013)
*1 amine or outer side, *2 acyl side, *3 side chain or, on linkers, in order; H or OH if unused. Where no end group is shown, it is not given here. Side-chain parts run from the residue outwards. The star is where a group is joined. C18 diacid = O=C(O)CCCCCCCCCCCCCCCCC(=O)*; γGlu = O=C(O)[C@H](CCC(=O)[*:2])N[*:1]; AEEA = NCCOCCOCC(=O)O

These binders were tested against glucagon receptor (human, UniProt P47871 26-477) (assay: cell-based or functional assay).
glucagon receptor, sequence (P47871 26-477): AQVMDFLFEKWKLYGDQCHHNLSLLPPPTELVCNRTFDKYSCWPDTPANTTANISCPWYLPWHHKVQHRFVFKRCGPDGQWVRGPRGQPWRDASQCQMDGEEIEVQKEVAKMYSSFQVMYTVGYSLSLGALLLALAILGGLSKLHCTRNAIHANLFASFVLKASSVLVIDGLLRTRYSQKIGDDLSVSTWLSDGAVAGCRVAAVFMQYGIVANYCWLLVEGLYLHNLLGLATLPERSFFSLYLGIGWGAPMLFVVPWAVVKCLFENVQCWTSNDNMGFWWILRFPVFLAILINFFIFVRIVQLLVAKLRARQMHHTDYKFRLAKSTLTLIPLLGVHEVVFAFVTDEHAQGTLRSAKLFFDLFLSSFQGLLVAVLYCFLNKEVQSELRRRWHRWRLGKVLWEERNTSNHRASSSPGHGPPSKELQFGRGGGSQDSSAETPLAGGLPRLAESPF

Binder	Assay (I) Glucagon [EC50]
HSQGTFTSDVSKYLDLRRAQEFVK([γGlu-AEEA-AEEA-γGlu-γGlu-C18 diacid])WLLST	0.088 nM
HSQGTFTSDVSRYLDTRRAQEFVK([γGlu-AEEA-AEEA-γGlu-γGlu-C18 diacid])WLLST	0.176 nM
HSQGTFTSDVSKYLDTRRAQEFVK([AEEA-AEEA-γGlu-γGlu-γGlu-C18 diacid])WLLST	0.08 nM

Second part, the binder after the results:

Assay (I) Glucagon [EC50]	Binder
0.517 nM	HSQGTFTSDYSKYLESRRAQDFVK([γGlu-γGlu-AEEA-AEEA-γGlu-C18 diacid])WLLQT
0.134 nM	HSQGTFTSDYSKYLESRRAQDFVK([γGlu-γGlu-AEEA-AEEA-γGlu-C18 diacid])WLLST-NH2 (N-terminus assumed; SMILES CC(C)C[C@H](NC(=O)[C@H](Cc1ccc(O)cc1)NC(=O)[C@H](CCCCN)NC(=O)[C@H](CO)NC(=O)[C@H](Cc1ccc(O)cc1)NC(=O)[C@H](CC(=O)O)NC(=O)[C@H](CO)NC(=O)[C@@H](NC(=O)[C@H](Cc1ccccc1)NC(=O)[C@@H](NC(=O)CNC(=O)[C@H](CCC(N)=O)NC(=O)[C@H](CO)NC(=O)[C@@H](N)Cc1c[nH]cn1)[C@@H](C)O)[C@@H](C)O)C(=O)N[C@@H](CCC(=O)O)C(=O)N[C@@H](CO)C(=O)N[C@@H](CCCNC(=N)N)C(=O)N[C@@H](CCCNC(=N)N)C(=O)N[C@@H](C)C(=O)N[C@@H](CCC(N)=O)C(=O)N[C@@H](CC(=O)O)C(=O)N[C@@H](Cc1ccccc1)C(=O)N[C@H](C(=O)N[C@@H](CCCCNC(=O)CC[C@H](NC(=O)CC[C@H](NC(=O)COCCOCCNC(=O)COCCOCCNC(=O)CC[C@H](NC(=O)CCCCCCCCCCCCCCCCC(=O)O)C(=O)O)C(=O)O)C(=O)O)C(=O)N[C@@H](Cc1c[nH]c2ccccc12)C(=O)N[C@@H](CC(C)C)C(=O)N[C@@H](CC(C)C)C(=O)N[C@@H](CO)C(=O)N[C@H](C(N)=O)[C@@H](C)O)C(C)C)
0.156 nM	HSQGTFTSDVSKYLDTRRAQEFVK([γGlu-AEEA-AEEA-γGlu-γGlu-C18 diacid])WLLST-NH2 (N-terminus assumed; SMILES CC(C)C[C@H](NC(=O)[C@H](Cc1c[nH]c2ccccc12)NC(=O)[C@H](CCCCNC(=O)CC[C@H](NC(=O)COCCOCCNC(=O)COCCOCCNC(=O)CC[C@H](NC(=O)CC[C@H](NC(=O)CCCCCCCCCCCCCCCCC(=O)O)C(=O)O)C(=O)O)C(=O)O)NC(=O)[C@@H](NC(=O)[C@H](Cc1ccccc1)NC(=O)[C@H](CCC(=O)O)NC(=O)[C@H](CCC(N)=O)NC(=O)[C@H](C)NC(=O)[C@H](CCCNC(=N)N)NC(=O)[C@H](CCCNC(=N)N)NC(=O)[C@@H](NC(=O)[C@H](CC(=O)O)NC(=O)[C@H](CC(C)C)NC(=O)[C@H](Cc1ccc(O)cc1)NC(=O)[C@H](CCCCN)NC(=O)[C@H](CO)NC(=O)[C@@H](NC(=O)[C@H](CC(=O)O)NC(=O)[C@H](CO)NC(=O)[C@@H](NC(=O)[C@H](Cc1ccccc1)NC(=O)[C@@H](NC(=O)CNC(=O)[C@H](CCC(N)=O)NC(=O)[C@H](CO)NC(=O)[C@@H](N)Cc1c[nH]cn1)[C@@H](C)O)[C@@H](C)O)C(C)C)[C@@H](C)O)C(C)C)C(=O)N[C@@H](CC(C)C)C(=O)N[C@@H](CO)C(=O)N[C@H](C(N)=O)[C@@H](C)O)
0.077 nM	HSHGTFTSDYSKYLDSKRAQEFVK([γGlu-γGlu-AEEA-γGlu-C18 diacid])WLLST
0.682 nM	HSQGTFTSDYSKYLESRRAQDFVK([γGlu-γGlu-AEEA-AEEA-γGlu-C18 diacid])WLEST
